Test results published in patent publication US20150005534A1.

Target: CYP97C2 (rice) expressed in E. coli from pRQ-C2 (pCDFDuet-1-CYP97C2) (Rice (O. sativa))
Experiment: cell-based or functional assay

## CYP97A4 (rice) expressed in E. coli from pRT-A4 (pCOLADuet-1-CYP97A4) (enzyme)
  lutein, % of total carotenoids in alpha- and beta-carotene accumulating E. coli with co-expressed hydroxylases (% of total carotenoids): 29

## HYD4 (maize) expressed in E. coli from pRQ-H4 (pCOLADuet-1-HYD4) (enzyme)
  lutein, % of total carotenoids in alpha- and beta-carotene accumulating E. coli with co-expressed hydroxylases (% of total carotenoids): 1.58
